Data as given in IntAct's records for PubMed 23918937.

B1: Protein maternal effect lethal 26 (Caenorhabditis elegans), Q94420 (parent)
chain: MEPRIDGGVFIGGIGNSGNEMCSNGVPALGVSSQTEIKVEKVQHTWTVKNFSHCYQEYLENFVYLQRGDEQLTWSIKIYPKGNGENNKDFVFLCLNRVINNNVKAGKIGFKSQFKLRTAENKDIEMRIHPNPSHSDYVSYIKRDVLFPQIMPRDMIIVNVEIDVAVETITTTNEPIQFEPTNSEQQLIEDYQRLFSQELLCDFAINVNGKIIRAHKAVLAARSPVFNAMLTHQDTDEAKSSMMYINDMDYDVIYEMVYYIYCGRCNKDITDMATALLIAADKYRLEELKSHCEKYLVENINIENACSLLIIGDLYSAPKLRKRAVTYILARPKNVTGTPGWEDILKGHPNLITDIFSQIDRQSSTGATSSVSNLPGVPMDIPGITGNIVPPPSGL
partner: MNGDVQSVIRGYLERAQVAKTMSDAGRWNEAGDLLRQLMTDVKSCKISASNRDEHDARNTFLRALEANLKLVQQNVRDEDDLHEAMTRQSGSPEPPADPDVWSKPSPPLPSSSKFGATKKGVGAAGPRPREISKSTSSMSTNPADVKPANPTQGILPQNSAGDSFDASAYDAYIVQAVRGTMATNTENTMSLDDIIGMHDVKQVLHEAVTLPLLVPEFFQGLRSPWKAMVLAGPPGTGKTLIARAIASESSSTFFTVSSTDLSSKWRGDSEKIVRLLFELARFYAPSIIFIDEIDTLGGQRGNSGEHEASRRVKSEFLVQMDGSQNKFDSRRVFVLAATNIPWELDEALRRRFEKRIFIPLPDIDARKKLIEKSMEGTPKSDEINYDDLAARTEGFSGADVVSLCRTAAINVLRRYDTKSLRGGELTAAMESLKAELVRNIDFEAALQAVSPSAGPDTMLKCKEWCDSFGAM
B2: Meiotic spindle formation protein mei-1 (Caenorhabditis elegans), P34808 (parent)
chain: B1 partner
partner: B1 chain
B3: Protein maternal effect lethal 26 (Caenorhabditis elegans), Q94420 (parent)
chain: B1 chain

Variants of: B1
Settings: with ktna1_caeel mei-1, P34808

Variant	effect of a mutation on the interaction
MEPRIDGGVFIGGIGNSGNEMCSNGVPALGVSSQTEIKVEKVQHTWTVKNFSHCYQEYLENFVYLQRGDEQLTWSIKIYPKGNGENNKDFVFLYLNRVINNNVKAGKIGFKSQFKLRTAENKDIEMRIHPNPSHSDYVSYIKRDVLFPQIMPRDMIIVNVEIDVAVETITTTNEPIQFEPTNSEQQLIEDYQRLFSQELLCDFAINVNGKIIRAHKAVLAARSPVFNAMLTHQDTDEAKSSMMYINDMDYDVIYEMVYYIYCGRCNKDITDMATALLIAADKYRLEELKSHCEKYLVENINIENACSLLIIGDLYSAPKLRKRAVTYILARPKNVTGTPGWEDILKGHPNLITDIFSQIDRQSSTGATSSVSNLPGVPMDIPGITGNIVPPPSGL [C94Y]	disrupting interaction strength

Variants of: B2
Settings: with mel26_caeel mel-26, Q94420

Variant	effect of a mutation on the interaction
MNGDVQSVIRGYLERAQVAKTMSDAGRWNEAGDLLRQLMTDVKSCKISASNRDEHDARNTFLRALEANLKLVQQNVRDEDDLHEAMTRQSGAPEPPADPDVWSKPSPPLPSSSKFGATKKGVGAAGPRPREISKSTSSMSTNPADVKPANPTQGILPQNSAGDSFDASAYDAYIVQAVRGTMATNTENTMSLDDIIGMHDVKQVLHEAVTLPLLVPEFFQGLRSPWKAMVLAGPPGTGKTLIARAIASESSSTFFTVSSTDLSSKWRGDSEKIVRLLFELARFYAPSIIFIDEIDTLGGQRGNSGEHEASRRVKSEFLVQMDGSQNKFDSRRVFVLAATNIPWELDEALRRRFEKRIFIPLPDIDARKKLIEKSMEGTPKSDEINYDDLAARTEGFSGADVVSLCRTAAINVLRRYDTKSLRGGELTAAMESLKAELVRNIDFEAALQAVSPSAGPDTMLKCKEWCDSFGAM [S92A]	disrupting interaction strength

Variants of: B3
Settings: with pp4r1_caeel ppfr-1, G5ECH5
pp4r1_caeel ppfr-1, G5ECH5, sequence (G5ECH5 whole entry): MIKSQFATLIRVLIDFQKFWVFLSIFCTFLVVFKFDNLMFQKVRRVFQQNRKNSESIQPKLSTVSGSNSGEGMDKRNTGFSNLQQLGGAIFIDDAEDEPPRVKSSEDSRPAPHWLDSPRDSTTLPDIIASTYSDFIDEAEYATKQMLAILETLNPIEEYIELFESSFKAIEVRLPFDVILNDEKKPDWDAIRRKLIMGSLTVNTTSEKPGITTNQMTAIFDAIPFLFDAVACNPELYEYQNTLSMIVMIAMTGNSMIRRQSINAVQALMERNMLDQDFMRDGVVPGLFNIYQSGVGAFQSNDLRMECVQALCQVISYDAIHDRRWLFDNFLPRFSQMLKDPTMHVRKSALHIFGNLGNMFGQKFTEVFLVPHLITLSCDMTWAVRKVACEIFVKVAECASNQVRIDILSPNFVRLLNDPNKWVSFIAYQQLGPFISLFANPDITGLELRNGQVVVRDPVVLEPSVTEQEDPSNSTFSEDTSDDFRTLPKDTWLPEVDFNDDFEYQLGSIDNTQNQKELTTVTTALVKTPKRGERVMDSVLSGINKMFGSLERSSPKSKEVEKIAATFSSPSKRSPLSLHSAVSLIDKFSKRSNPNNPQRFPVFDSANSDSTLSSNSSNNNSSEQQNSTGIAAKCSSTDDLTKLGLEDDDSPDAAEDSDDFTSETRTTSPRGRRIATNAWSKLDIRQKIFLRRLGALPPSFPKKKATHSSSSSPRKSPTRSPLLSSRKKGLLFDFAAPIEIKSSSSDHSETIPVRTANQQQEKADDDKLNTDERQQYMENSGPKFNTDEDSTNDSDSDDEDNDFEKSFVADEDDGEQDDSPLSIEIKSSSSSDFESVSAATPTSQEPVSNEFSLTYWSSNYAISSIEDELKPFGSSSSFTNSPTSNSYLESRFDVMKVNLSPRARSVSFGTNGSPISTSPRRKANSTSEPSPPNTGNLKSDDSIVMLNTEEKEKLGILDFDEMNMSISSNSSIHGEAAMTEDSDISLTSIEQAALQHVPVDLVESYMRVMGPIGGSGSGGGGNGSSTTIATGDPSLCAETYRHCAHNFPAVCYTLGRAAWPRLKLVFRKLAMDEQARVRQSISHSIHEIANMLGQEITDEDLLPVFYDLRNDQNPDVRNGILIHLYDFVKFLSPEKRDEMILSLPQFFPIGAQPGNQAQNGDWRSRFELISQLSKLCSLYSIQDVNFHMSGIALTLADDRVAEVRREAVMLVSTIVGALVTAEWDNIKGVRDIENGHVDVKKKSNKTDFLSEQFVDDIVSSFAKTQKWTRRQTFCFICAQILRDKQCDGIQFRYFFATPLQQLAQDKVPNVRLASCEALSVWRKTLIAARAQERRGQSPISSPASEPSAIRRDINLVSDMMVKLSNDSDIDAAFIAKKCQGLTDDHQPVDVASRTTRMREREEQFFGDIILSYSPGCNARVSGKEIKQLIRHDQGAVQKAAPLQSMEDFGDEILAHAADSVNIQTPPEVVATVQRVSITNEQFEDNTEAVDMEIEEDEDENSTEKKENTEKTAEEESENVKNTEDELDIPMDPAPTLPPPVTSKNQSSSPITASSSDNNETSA

Variant	effect of a mutation on the interaction
MEPRIDGGVFIGGIGNSGNEMCSNGVPALGVSSQTEIKVEKVQHTWTVKNFSHCYQEYLENFVYLQRGDEQLTWSIKIYPKGNGENNKDFVFLYLNRVINNNVKAGKIGFKSQFKLRTAENKDIEMRIHPNPSHSDYVSYIKRDVLFPQIMPRDMIIVNVEIDVAVETITTTNEPIQFEPTNSEQQLIEDYQRLFSQELLCDFAINVNGKIIRAHKAVLAARSPVFNAMLTHQDTDEAKSSMMYINDMDYDVIYEMVYYIYCGRCNKDITDMATALLIAADKYRLEELKSHCEKYLVENINIENACSLLIIGDLYSAPKLRKRAVTYILARPKNVTGTPGWEDILKGHPNLITDIFSQIDRQSSTGATSSVSNLPGVPMDIPGITGNIVPPPSGL [C94Y]	disrupting interaction strength
